# Patent US20260217835A1 (published 2026)
# T1: Fc fragment SEQ ID NO: 596 (coexpressed with the M252Y/S254T/T256E heavy chains) (Homo sapiens (Human), UniProt P01857 104-328 = IgG part)
# T1 construct: Fc fragment without CH3 interface modification
# T1 chain: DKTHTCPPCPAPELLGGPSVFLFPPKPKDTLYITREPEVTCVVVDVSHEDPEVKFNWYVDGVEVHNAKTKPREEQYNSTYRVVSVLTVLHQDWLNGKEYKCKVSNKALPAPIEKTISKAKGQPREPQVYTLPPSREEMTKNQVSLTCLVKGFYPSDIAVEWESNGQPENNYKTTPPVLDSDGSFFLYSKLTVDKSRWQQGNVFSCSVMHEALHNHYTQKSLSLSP
# T2: Fc fragment SEQ ID NO: 598 (partner of the L234A/L235A/P329G heavy chains) (human, UniProt P01857 104-328 = IgG part, limits assumed)
# T2 construct: IgG1 Fc fragment without homodimer-promoting modification
# T2 chain: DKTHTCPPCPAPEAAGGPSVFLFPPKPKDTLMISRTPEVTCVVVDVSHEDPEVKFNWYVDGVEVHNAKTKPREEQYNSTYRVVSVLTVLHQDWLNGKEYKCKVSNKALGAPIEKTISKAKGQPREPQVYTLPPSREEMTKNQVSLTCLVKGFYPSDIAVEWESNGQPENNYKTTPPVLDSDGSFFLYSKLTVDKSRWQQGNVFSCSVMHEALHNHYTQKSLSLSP
# B1: Full-length heavy chain with M252Y/S254T/T256E (enhance FcRn binding) and T366W/L368A/Y407V (SEQ ID NO: 145), with light chain SEQ ID NO: 61 (antibody, human IgG1, kappa)
# heavy: QVQLQESGPGLVRPSQTLSLTCTVSGYSITSDHAWSWVRQPPGRGLEWIGYISYSGITTYNPSLKSRVTMLRDTSKNQFSLRLSSVTAADTAVYYCARSLARTTAMDYWGQGSLVTVSSASTKGPSVFPLAPSSKSTSGGTAALGCLVKDYFPEPVTVSWNSGALTSGVHTFPAVLQSSGLYSLSSVVTVPSSSLGTQTYICNVNHKPSNTKVDKRVEPKSCDKTHTCPPCPAPELLGGPSVFLFPPKPKDTLYITREPEVTCVVVDVSHEDPEVKFNWYVDGVEVHNAKTKPREEQYNSTYRVVSVLTVLHQDWLNGKEYKCKVSNKALPAPIEKTISKAKGQPREPQVYTLPPSREEMTKNQVSLWCAVKGFYPSDIAVEWESNGQPENNYKTTPPVLDSDGSFFLVSKLTVDKSRWQQGNVFSCSVMHEALHNHYTQKSLSLSP
# light: not shown
# B2: Full-length heavy chain SEQ ID NO: 153 (L234A/L235A/P329G; no homodimer-promoting modification) with light chain SEQ ID NO: 61 (antibody, human IgG1, kappa, L234A L235A)
# heavy: QVQLQESGPGLVRPSQTLSLTCTVSGYSITSDHAWSWVRQPPGRGLEWIGYISYSGITTYNPSLKSRVTMLRDTSKNQFSLRLSSVTAADTAVYYCARSLARTTAMDYWGQGSLVTVSSASTKGPSVFPLAPSSKSTSGGTAALGCLVKDYFPEPVTVSWNSGALTSGVHTFPAVLQSSGLYSLSSVVTVPSSSLGTQTYICNVNHKPSNTKVDKRVEPKSCDKTHTCPPCPAPEAAGGPSVFLFPPKPKDTLMISRTPEVTCVVVDVSHEDPEVKFNWYVDGVEVHNAKTKPREEQYNSTYRVVSVLTVLHQDWLNGKEYKCKVSNKALGAPIEKTISKAKGQPREPQVYTLPPSREEMTKNQVSLTCLVKGFYPSDIAVEWESNGQPENNYKTTPPVLDSDGSFFLYSKLTVDKSRWQQGNVFSCSVMHEALHNHYTQKSLSLSP
# light: not shown
# B3: Full-length heavy chain SEQ ID NO: 157 (L234A/L235A/P329G; E356K/K392D/D399K/K439E) with light chain SEQ ID NO: 61 (antibody, human IgG1, kappa, L234A L235A)
# heavy: QVQLQESGPGLVRPSQTLSLTCTVSGYSITSDHAWSWVRQPPGRGLEWIGYISYSGITTYNPSLKSRVTMLRDTSKNQFSLRLSSVTAADTAVYYCARSLARTTAMDYWGQGSLVTVSSASTKGPSVFPLAPSSKSTSGGTAALGCLVKDYFPEPVTVSWNSGALTSGVHTFPAVLQSSGLYSLSSVVTVPSSSLGTQTYICNVNHKPSNTKVDKRVEPKSCDKTHTCPPCPAPEAAGGPSVFLFPPKPKDTLMISRTPEVTCVVVDVSHEDPEVKFNWYVDGVEVHNAKTKPREEQYNSTYRVVSVLTVLHQDWLNGKEYKCKVSNKALGAPIEKTISKAKGQPREPQVYTLPPSRKEMTKNQVSLTCLVKGFYPSDIAVEWESNGQPENNYDTTPPVLKSDGSFFLYSKLTVDKSRWQQGNVFSCSVMHEALHNHYTQESLSLSP
# light: not shown
# B4: Full-length heavy chain with M252Y/S254T/T256E (enhance FcRn binding) and T394W/F405A (SEQ ID NO: 144), with light chain SEQ ID NO: 61 (antibody, human IgG1, kappa)
# heavy: QVQLQESGPGLVRPSQTLSLTCTVSGYSITSDHAWSWVRQPPGRGLEWIGYISYSGITTYNPSLKSRVTMLRDTSKNQFSLRLSSVTAADTAVYYCARSLARTTAMDYWGQGSLVTVSSASTKGPSVFPLAPSSKSTSGGTAALGCLVKDYFPEPVTVSWNSGALTSGVHTFPAVLQSSGLYSLSSVVTVPSSSLGTQTYICNVNHKPSNTKVDKRVEPKSCDKTHTCPPCPAPELLGGPSVFLFPPKPKDTLYITREPEVTCVVVDVSHEDPEVKFNWYVDGVEVHNAKTKPREEQYNSTYRVVSVLTVLHQDWLNGKEYKCKVSNKALPAPIEKTISKAKGQPREPQVYTLPPSREEMTKNQVSLTCLVKGFYPSDIAVEWESNGQPENNYKTWPPVLDSDGSFALYSKLTVDKSRWQQGNVFSCSVMHEALHNHYTQKSLSLSP
# light: not shown
# B5: Full-length heavy chain SEQ ID NO: 156 (L234A/L235A/P329G; Q347R/K360E/D399V/F405T/K409W) with light chain SEQ ID NO: 61 (antibody, human IgG1, kappa, L234A L235A)
# heavy: QVQLQESGPGLVRPSQTLSLTCTVSGYSITSDHAWSWVRQPPGRGLEWIGYISYSGITTYNPSLKSRVTMLRDTSKNQFSLRLSSVTAADTAVYYCARSLARTTAMDYWGQGSLVTVSSASTKGPSVFPLAPSSKSTSGGTAALGCLVKDYFPEPVTVSWNSGALTSGVHTFPAVLQSSGLYSLSSVVTVPSSSLGTQTYICNVNHKPSNTKVDKRVEPKSCDKTHTCPPCPAPEAAGGPSVFLFPPKPKDTLMISRTPEVTCVVVDVSHEDPEVKFNWYVDGVEVHNAKTKPREEQYNSTYRVVSVLTVLHQDWLNGKEYKCKVSNKALGAPIEKTISKAKGQPREPRVYTLPPSREEMTENQVSLTCLVKGFYPSDIAVEWESNGQPENNYKTTPPVLVSDGSFTLYSWLTVDKSRWQQGNVFSCSVMHEALHNHYTQKSLSLSP
# light: not shown
# B6: Full-length heavy chain SEQ ID NO: 155 (L234A/L235A/P329G; T366W/L368A/Y407V) with light chain SEQ ID NO: 61 (antibody, human IgG1, kappa, L234A L235A)
# heavy: QVQLQESGPGLVRPSQTLSLTCTVSGYSITSDHAWSWVRQPPGRGLEWIGYISYSGITTYNPSLKSRVTMLRDTSKNQFSLRLSSVTAADTAVYYCARSLARTTAMDYWGQGSLVTVSSASTKGPSVFPLAPSSKSTSGGTAALGCLVKDYFPEPVTVSWNSGALTSGVHTFPAVLQSSGLYSLSSVVTVPSSSLGTQTYICNVNHKPSNTKVDKRVEPKSCDKTHTCPPCPAPEAAGGPSVFLFPPKPKDTLMISRTPEVTCVVVDVSHEDPEVKFNWYVDGVEVHNAKTKPREEQYNSTYRVVSVLTVLHQDWLNGKEYKCKVSNKALGAPIEKTISKAKGQPREPQVYTLPPSREEMTKNQVSLWCAVKGFYPSDIAVEWESNGQPENNYKTTPPVLDSDGSFFLVSKLTVDKSRWQQGNVFSCSVMHEALHNHYTQKSLSLSP
# light: not shown
# B7: Full-length heavy chain SEQ ID NO: 154 (L234A/L235A/P329G; T394W/F405A) with light chain SEQ ID NO: 61 (antibody, human IgG1, kappa, L234A L235A)
# heavy: QVQLQESGPGLVRPSQTLSLTCTVSGYSITSDHAWSWVRQPPGRGLEWIGYISYSGITTYNPSLKSRVTMLRDTSKNQFSLRLSSVTAADTAVYYCARSLARTTAMDYWGQGSLVTVSSASTKGPSVFPLAPSSKSTSGGTAALGCLVKDYFPEPVTVSWNSGALTSGVHTFPAVLQSSGLYSLSSVVTVPSSSLGTQTYICNVNHKPSNTKVDKRVEPKSCDKTHTCPPCPAPEAAGGPSVFLFPPKPKDTLMISRTPEVTCVVVDVSHEDPEVKFNWYVDGVEVHNAKTKPREEQYNSTYRVVSVLTVLHQDWLNGKEYKCKVSNKALGAPIEKTISKAKGQPREPQVYTLPPSREEMTKNQVSLTCLVKGFYPSDIAVEWESNGQPENNYKTWPPVLDSDGSFALYSKLTVDKSRWQQGNVFSCSVMHEALHNHYTQKSLSLSP
# light: not shown
# B8: Full-length human IgG1 heavy chain with Q347R/K360E/D399S/F405T/K409F (SEQ ID NO: 375) with light chain SEQ ID NO: 61 (antibody)
# heavy: QVQLQESGPGLVRPSQTLSLTCTVSGYSITSDHAWSWVRQPPGRGLEWIGYISYSGITTYNPSLKSRVTMLRDTSKNQFSLRLSSVTAADTAVYYCARSLARTTAMDYWGQGSLVTVSSASTKGPSVFPLAPSSKSTSGGTAALGCLVKDYFPEPVTVSWNSGALTSGVHTFPAVLQSSGLYSLSSVVTVPSSSLGTQTYICNVNHKPSNTKVDKRVEPKSCDKTHTCPPCPAPELLGGPSVFLFPPKPKDTLMISRTPEVTCVVVDVSHEDPEVKFNWYVDGVEVHNAKTKPREEQYNSTYRVVSVLTVLHQDWLNGKEYKCKVSNKALPAPIEKTISKAKGQPREPRVYTLPPSREEMTENQVSLTCLVKGFYPSDIAVEWESNGQPENNYKTTPPVLSSDGSFTLYSFLTVDKSRWQQGNVFSCSVMHEALHNHYTQKSLSLSP
# light: not shown
# notes: also called Sample No. 965
# Columns and labels:
# [1] = molecular target: T1, Fc fragment SEQ ID NO: 596 (coexpressed …); experiment: SEC peak area ratio; full-length heavy chain, light chain and Fc fragment coexpressed in Expi293F, affinity purified
# [2] = molecular target: the molecule itself; experiment: as above
# [3] = molecular target: T2, Fc fragment SEQ ID NO: 598 (partner of …); experiment: SEC peak area ratio; full-length heavy chain, light chain and Fc fragment coexpressed in Expi293F, Protein A purified
# [4] = molecular target: the molecule itself; experiment: as above
# [5] = molecular target: T3, Fc fragment of human IgG1 below the hinge region containing no modification (SEQ ID NO: 62) (human, UniProt P01857 104-328 = IgG part); experiment: SEC peak area ratio after coexpression of full-length heavy chain, light chain and Fc fragment in Expi293F
# T3 construct: One Fc chain is meant as the associating unit; it pairs with itself (homo Fc fragment) or with a full-length heavy chain (heteromultimer); also called WT-Fc fragment
# [6] = molecular target: the molecule itself; experiment: as above
Binder,Heteromultimer (%) [3],Homo full-length heavy chain (%) [4],also measured
B1,,,Heteromultimer (%) [1]: 0%; Homo full-length heavy chain (%) [2]: 62.3%
B2,51.4%,22.6%,
B3,0%,57.4%,
B4,,,Heteromultimer (%) [1]: 0%; Homo full-length heavy chain (%) [2]: 69.8%
B5,0%,61.5%,
B6,0%,63.9%,
B7,0%,62.8%,
B8,,,Heteromultimer (%) [5]: 0.7%; Homo full-length heavy chain (%) [6]: 69.2%
